According to a protein production outcome set (Wang et al. 2014):

Assay: label from the status in PepcDB records

Row | Sequence | protein production
1 | MDRKKVMVRHSIASLVALGIFGGSRFLYNVIIGRKYGVETLGYTNSIISQAFFVAGFLAFFSVGLGKFTSEFLGKGEYNRIKKLTGISFTFPFLGLILIPLNFHVALLSVLRAIQLTFRSFIYGLHKGELYAYSVILAFPFFLLGFLDGPLLPYYLLLGTIGIFSLSYLVSRSLIGLPGREDTKALIGFSTWAFLGTIAGIFLLQAPYFLTEKLAGNIEAGIVSVALSTAFLLSYLPQILQSAIVPLYAYDYAKGDDKAIKELAENSTLLLSLFSSLLVFGLIFAKSFVEVLFNIKMGAELLLALIGVELYIAYNPLINLLTATKFVKKSAIFSLIGAMVSGIFWILLIPRLGAIGTLLGLTLGYAIIFALVLWESKRKFNINAKILKPTLLAIPLQLLSLKFPYTILIYLITEIKDIEKVMAFLRDIRS | failed
2 | MSVQTPDFSQQQQFLELTQQTIQNQQFDRLVLSQYKGTEPELEKVTFRMVELQQQFKLSALYHYTTKDVTKNYDLNDAIGVIETLIANCKQANLFGSVIEAQLKKNKKKAMLNVQQLSAEKYNNNVGQQHNREKQRYIDTMAPFLQYLGITEPNGNIIPAMARKWKQINKFIEIFSHAYEQIELKDDSIKIVDFGSGKGYLTFALYDYLQQQTRTAPQMTGVELRSNLVEFCEDVAKKAGFDHLDFFEGDVRTYAPEHLDVMIALHACDVATDFAIHTGIRLNASMIMCAPCCHKELRPQLQSPKVLKPMLQFGIHAGQQAEMLTDTLRALLLKAYGYDVKVFEFVSLEHTSKNKMILATKRQTIQQPDPQILEQIQALKQMYGIQKQTLELLLQDQITIDNVGCKC | failed
3 | MKLSMQMLKKSSLIPSDLTDTLLLVGSGWDDYSFKTSFTVMHFGPDAKKTELGTTKIGYKDQQHGWTSEKFSTKNISLSDDFFSLGQDVDFYRKLQGGLSADAALAVLQALKDVIADPLRLEDVKNEQVFRESLMRNVSWSVIRDQFKRVLAGKPELTSFHFSYQTNGDEQRAGVDVSFKVTPHSLPSTNVHVLIGRNGVGKTTILNDMVETILSDTTGRPHCGKFLIYDSLGSEPMPTDYFSSVVSVSFSAFDPFLFPADQPDRSKGVAYFYVGMQSPGEGPGKRPPKTTEALTEDFITSLESCFSQESKRQRWVAAIKRLESDSNFEDMDLAHLNELPTDEAIVKAHRIFSRMSSGHSIVLLTLTKLVEAVEEKTLVLMDEPESHLHPPLLSAFTRAISDLLQDRNGVAIIATHSPVVVQEAPGSCVWKLTRLRAEGRADRPERETFGENAGVLTREIFGLEVNKSGYHEVLQEAVNRGGTFESILADYQEQLGFEAQAILRKMVASRRES | failed
4 | MTYLVTGATGGLGGYALNYLKELVPMTDIYALVRSEEKGADLKAAGFNIRIGDYSDAESMKQAFAGIDRVLFVSGAPGNRQVEHENVVNTAKEAGVSYIAYTSFADADNSTSALAADHIFTEKVIEKSGIEHTFLRNNWYFENEMPMIGGALNGGKFVYAAGNGKTGWALKREYAEVAAKAVAGARFPEILELSGPVMTYAELTEALKEATGKDFEVISSDDKGFVENLVNVGMPQPVAEMFLSFQHDIKNNQLDVTSGDFEKALGKPLTNRVDALRELLQ | failed
5 | QAVPCRAPKVGRLIYTAGGYFRQSLSYLEAYNPSNGSWLRLADLQVPRSGLAGCVVGGLLYAVGGRNNSPDGNTDSSALDCYNPMTNQWSPCASMSVPRNRIGVGVIDGHIYAVGGSHGCIHHSSVERYEPERDEWHLVAPMLTRRIGVGVAVLNRLLYAVGGFDGTNRLNSAECYYPERNEWRMITPMNTIRSGAGVCVLHNCIYAAGGYDGQDQLNSVERYDVETETWTFVAPMRHRSALGITVHQGKIYVLGGYDGHTFLDSVECYDPDSDTWSEVTRMTSGRSGVGVAVTMEPCRKQIDQQNCTC | not failed
6 | MIRAAAKFSREAAATIRGRTISVRGNLIRYSTPLRLIHGEISVPNANHVAIQMVNYALSHARSQKSDESYAQGMLVLEQCLGNQPNDDQVSHDSKATVLLAMSDLLYESGNSSEAIERLKQVMTLTHSSLAIRVVAVEALVGLLIQSGQDDASLDVADEFLKLVKESGHENLQGVVATVKAIKGLAELVKGNIESAESLFRGLENHESCKGNIALSYGEYLHATGNFELAKEMYQKAIQGVTETKESMCSCNMNLKAVSLAATFALGQLESHIGNFGVAEKTLTDALTKTEEHYGDNHPKVGVILTAVALMYGNKAKQERSSSILIQEGLYRKALELMKAPPLDSKGIINMENQEVIALARAGYAELLLIQENRKSEGEKMKSWAESAWRNKRISLSEALTLSEPLGKVAIIDARTTRVL | failed
7 | MVADKSKKSKIEEKGEEENLEQIDAELVLSIEKLQEIQDDLEKINEKASDEVLEVEQKYNVIRKPVYDKRNEVIQSIPGFWMTAFLSHPALGDLLTEEDQKIFKYLNSLEVEDAKDVKSGYSITFHFTSNPFFEDAKLTKTFTFLEEGTTKITATPIKWKEGKGLPNGVNHDDKKGNKRALPEESFFTWFTDAQHKEDAGDEIHDEVADIIKEDLWSNPLTYFNNDADEEDFDGDDDGDEEGEEDDDDEEEEDGEE | failed
8 | MKLKYCHYAYDDEGYVIHMLTSNERTFFTNAYIIETKNSIVVVDTLMVNSDAILLRQYMDNINKPLIAVIITHGHPDHYNGTEIITGFKEVPIISTKGIRDCIQDTVDSKEVKWKPYFGQDWPEHKILPNQLVIDSEVVNLDGLDYSFRDLGAAESSSDLFFTLGEKRSVIFVGDVVFNNMHGFMNDGNSAQWLKVLQKLLTEIADVKLLFTGHGDPGDTHQLVQRQIDYISHYRSNLLAIIRGNQLEHHHHHH | failed
9 | MWPLISNELYKIIKKKKFWITFIVFFALFLAYSIVQYSSEKKYYEPKQRIAMDKLEIKTEKKQLNSPGINAEQKKKIKQYIKQDEKDIKDKKKEDASKDLDWHLRLNKELIQKKYEYIKDKGKGKNEDTEDASISVMKDEYYRDNNLNPYDKTGDLAMDSFLSSKAFMQILVVFIIIAVATSDIVSSEYSPATIKMLLAKPASRAKILFSKFIAILVGNIFIIGIPQVITYLILSFMNGFPNLSQPIAVGRMYQYDSSVILSNHNVGVSPILGSSYLITEGKYLLYLALLDLLFILGCVSICFLISVLIKNSAITIGINVGLGVVMSIIGLMTLEGAIPKALSAITPFLIMTYSSTDVLLMGDMAKRANNPGITVGMGIVVFIVYTVVCMGISTFVFSKKDMLA | failed
10 | MTWLPFIIIIPLFGAFSMPIVSLLKGKAKEIWATIISFTTLMVGIQVFREVWNRGTIVYALGSETPFGKANFPIRIVWEVDKFGAIMVLIITLVSFLAVLYSIEYMKHDTGLEKYYTLILILELGMLGIAITGDIFNFYVFLEIMSIASYALVAFRNDTWEAIEAGIKYMFVGSLASSLVLLGIALLYGQYGTLTMGYLAVKMSENPTIVAKIALSLFLGGLLFKSGASPVHMWLADAHPAAPSSISAMLSGLVIKVGGIYAIARVVFSIFLPAINLATVGWLVIIFACITLIVGNAMAVVQEDMKRLLAYSSVGQIGYILLGLGIGMVAYGSKIGELALAGAIYHIVNHAMMKALLFLVAGAVLHELGTRNLNELSGLAKTMPKTTFAFLIGAAAIVGMPPLNGFASKWLIYESSALFNPIIGSIAIIGTAFCTAAYVRVLFTFFGRPNEKVMRAKDPGALMLIPMFILVIAIILMGIFPWQISDKIMIPAARNLWDITSYVMTLMGGG | failed
11 | SSQGFIFNLSRPMFQDRRVRQALSLLWDFEWTNRQMMRNMYIRQDSYFSNSELAASQLPTPAELKILEPLRGTVPKEVFDTVFKTPKTDGTGLIRDKQLQALALMKEAGWTPKGDELVNAQGEPFSFTFLNAQSGFERMLLPYKRTLAQIGIHFDIRRIDSAQYLNRVMARDYDMIVTGYPVSTSPGAELYNSFGSKVAMDPGSSNYMALQDPAVDTLIAGLVKADNKQTMTDYAHCLDRVLQWNYYWIPNYYPP | failed
12 | MTGRVCVLVMDSFGIGASLDAARYGDAGANTLVHIYEACKRGECDIEGVRKGPLMLPNLAGKGLYHAAMASSGLSFIDLATLAIPSGYYGYAVEQSLGKDTPSGHWEMAGVPVTFEWGYFPDKPYCFPEELISEFIKQCNLPGVLGEKHASGTIIIDELGEKHIRTGKPIVYTSADSVFQIAAHEEAFGLQRLYDICKIARNLVDKYQIGRVIARPFTGKPGSFKRTGNRKDYATPPPEKTLLDFLKEDGREVIAIGKIADIYAHQGVTQEIKADGNMALFDATLSAMKTAPQGSLVFTNFVDFDSSYGHRRDIAGYAHALEQFDARLPELDALLQPDDMVFIAADHGCDPTFPGSDHTREHIPVLVFGPQVNSKFIGRRDCFADIGQSIAEHLQLSSPLAHGVSFL | failed
13 | MQYLIVKYSHQIFVTITILVFNIRFFLLWKNPEKPLVGFWKALPHLNDTMLLFTGLWLMKITHFSPFNAPWLGTKILLLFAYIALGMVMMRARPRSTKFYTVYLLAMCCIACIVYLAKTKVLPF | failed
14 | MTPSRDTKIILEGFCHPALNNPKPISVRFEKSILMVTGVNAGGKTMLLKSILSSAFLARYLIPMPILASKSSIGSFKGIAAVLDDPQSAKNDISTFAGRMLSFERFFKERGFLVGVDEIELGTDSDEAASLFKVILEQLIKRDFKIIITTHHKRLAALMAANEEVELMAALYDEKRQMPTFSFLQGTIGKSYAFETAERYGIPPFVIKEAKEVYGQDKEK | failed
15 | MYADYPYYADHYGGDIPEREYPSAERRAEAYIRKLTYVRGNIFAVENTAVKDAVCAVADVYYSCKKKQEAGTVKSESNDGYSVSYAVEQADGQTMEELIRKKAYEAASTYLLPTGWLSRKVGCCHADECDDYNL | failed
16 | MLSARTMKEVVYWSPKKVADWLLENAMPEYCEPLEHFTGQDLINLTQEDFKKPPLYRVSSDNGQRLLDMIETLKMEHHMEAHKN | not failed
17 | MLPAQDTRGKGLSLARRLYRSRTLGLALGFFCVAAGMAPLQPAPWVWGFMLFNAFAWPHLAYQWARLARVPFRAEYRNLLVDSLLGGFWVGAMHFNPLPLATTLGMMAMNNMALGGLRFFLAGSAAQVLGMGVALWLFGPAFVAQTTPEQVYACLPMLTLYPLALGYICYQQAVTLGRHKRELLALSRTDSLTGLLNHGAWKDQLEIEFQRCKRQAHGGAIALIDIDHFKAINDTYGHVAGDVVLRQLSKLLRQNLRVSDQAGRYGGDEFCVILPDVPLAHAAELMEALRGRFGALGYEQSPALQVSLSIGLAAFNPLHDDAMGWLNDADQALYAAKTCGRNNVTCHPPEQPSRRLLNSL | failed
18 | MILIRYLIKEVFKSQIAILLILLLIFFSQQFVRVLGAAANGNVPADLVFSLLGLGMPTMAQLMLPLCLFIAILLTFGRLYAESEITVMRACGVGQRILVKVALIMSLLTAGIAAYNALWLSPWAIQKQVNMVEDAKANPTVGVLSSGQFISTNNNNVVLFIDKIKDNQIRNVYLFQMTPQKQTKPSVITAEKGELIALPNGDQVLNLKNTKRVEGTSALPDFRITHFDEYHAYLGYQSAENTNDEVAELTLSQLIDLDSSSAKAELHWRITLILAVPLMALIAVPLSRVNPRQGRFAKILPALLLYLIYFLLQSSFKSAGSAGKLEAELLMPLVNIGFFLLAVVLNSWDSEIMYKFRYLFSKKGSAKDDKYP | failed
19 | MVDQSAVGRRFTPVTAHVEAGRLRYFLDTLGETNPVYRDAAAAKVEGFAAPPVPPTYLFCLEMLDNERPFEFLTALEIDLGRVLHGEQSFTYHAPVMVGDTLTFSPQVTSVTDKKGGAMTLIGVATAVTNQHGVHVADTTRTIVVRNGLEHHHHHH | not failed
20 | MIITIANEKGGSGKSTLCLNLCVQLLLDKKDIAALDTDSQKSLEVFNNIRSETSLPNFTLFNRTGNITDTLKQMMDKYEYILIDTKGEHSKESQRAMLLSDWVLIPTTPSQLDTAVLLDMLERIRDIQALNENLKACIVMNRIPTIPTLKEKKALIDFINQNNANESVFLMDNLLSERIAYKRSVSEGMGVMEYNDNKAKNEWSQFYDELNGYLRIKK | failed
